Assay results from patent US20240218374.

Key:
[1] = molecular target: Spike S2 ECD (SARS-CoV-2) (UniProt P0DTC2); assay: filter; conditions: Y=Tyr-dU, p=Nap-dC
[2] = molecular target: Spike RBD-mFc (ACE2 inhibition assay) (SARS-CoV-2) (UniProt P0DTC2); assay: inhibition; conditions: Y=Tyr-dU, p=Nap-dC; printed CCTTGGGAYApYAYGpGYppGAppGpYpGGApGGAGAAGG [Tyr-dU: 9,12,14,18,27; Nap-dC: 11,16,19,20,23,24,26,28,32]
Spike S1 (SARS-CoV-2) = Spike S1 (SARS-CoV-2) (UniProt P0DTC2); assay: filter
Spike RBD (SARS-CoV-2) = Spike RBD (SARS-CoV-2) (UniProt P0DTC2); assay: filter; conditions: P=Nap-dU
[3] = molecular target: Spike S1 & S2 ECD (SARS-CoV-2) (UniProt P0DTC2); assay: filter
[4] = molecular target: authentic SARS-CoV-2 virus (VIC01, Clade B) spike (SARS-CoV-2) (UniProt P0DTC2); assay: cell_activity; conditions: Y=Tyr-dU, p=Nap-dC; printed GGGAYApYAYGpGYppGAppGpYpGGApG [Tyr-dU: 5,8,10,14,23; Nap-dC: 7,12,15,16,19,20,22,24,28]
[5] = Y=Tyr-dU, p=Nap-dC, SB18T0.01, 37 C

CCTTGCAGGCGGCACATGGCACTTCATATCGAGCGGAAGG [26876-3_4 (SL1114)]
Kd ([1]; printed CCTTGpAGGpGGpApAYGGpApYYpAYAYpGAGpGGAAGG [Nap-dC: 6,10,13,15,20,22,25,30,34, Tyr-dU: 17,23,24,27,29]): 0.37 nM

CCTTGGGATACTATGCGTCCGACCGCTCGGACGGAGAAGG [26874-29_4 (SL1111)]
EC50 [2]: 4.2 nM
Kd (Spike S1 (SARS-CoV-2); Y=Tyr-dU, p=Nap-dC, printed CCTTGGGAYApYAYGpGYppGAppGpYpGGApGGAGAAGG [Tyr-dU: 9,12,14,18,27, Nap-dC: 11,16,19,20,23,24,26,28,32]): 3.2 nM

CCTTGTGCAACGCACCTTATTCGGCTTGAATGTGAGAAGG [26876-13_4 (SL1115)]
Kd ([1]; printed CCTTGYGpAApGpAppYYAYYpGGpYYGAAYGYGAGAAGG [Nap-dC: 8,11,13,15,16,22,25, Tyr-dU: 6,17,18,20,21,26,27,31,33]): 0.19 nM

GCATCATCTCCCAGCTAATGAGTGTCTGAATTGGACTGGTCCTCTGGGGA [26860-75_3 (SL1107)]
Kd (Spike RBD (SARS-CoV-2); printed GCATCAPCPCCCAGCPAAPGAGPGPCPGAAPPGGACPGGPCCPCPGGGGA [7,9,16,19,23,25,27,31,32,37,40,43,45]): 0.23 nM
Kd (Spike S1 (SARS-CoV-2); P=Nap-dU, printed GCATCAPCPCCCAGCPAAPGAGPGPCPGAAPPGGACPGGPCCPCPGGGGA [7,9,16,19,23,25,27,31,32,37,40,43,45]): 2.8 nM

GCATCGGAATGAATGTCTGCCTTGCACTGGTGCGGTCCGATTGTGAGGGA [26860-16_3 (SL1108)]
Kd (Spike RBD (SARS-CoV-2); printed GCATCGGAAPGAAPGPCPGCCPPGCACPGGPGCGGPCCGAPPGPGAGGGA [Nap-dU at 10,14,16,18,22,23,28,31,36,41,42,44]): 0.061 nM
Kd (Spike S1 (SARS-CoV-2); P=Nap-dU, printed GCATCGGAAPGAAPGPCPGCCPPGCACPGGPGCGGPCCGAPPGPGAGGGA [Nap-dU at 10,14,16,18,22,23,28,31,36,41,42,44]): 0.48 nM

GGGANANNANGNGNNNGANNGNNNGGANG [26874-29_112]
Kd ([3]; MOEdU at 14, other dU Tyr-dU, dC Nap-dC, SB18T0.01, 37 C): 0.56 nM

GGGANANNANGNGNNNGANNGNNNGGANG [26874-29_113]
Kd ([3]; 2NapdU at 14, other dU Tyr-dU, dC Nap-dC, SB18T0.01, 37 C): 0.32 nM

GGGANANNANGNGNNNGANNGNNNGGANG [26874-29_114]
Kd ([3]; MOEdU at 23, other dU Tyr-dU, dC Nap-dC, SB18T0.01, 37 C): 0.81 nM

GGGANANNANGNGNNNGANNGNNNGGANG [26874-29_115]
Kd ([3]; 2NapdU at 23, other dU Tyr-dU, dC Nap-dC, SB18T0.01, 37 C): 0.46 nM

GGGANANNANGNGNNNGANNGNNNGGANG [26874-29_116]
Kd ([3]; BTdU at 5, other dU Tyr-dU, dC Nap-dC, low plateau): 0.53 nM

GGGANANNANGNGNNNGANNGNNNGGANG [26874-29_117]
Kd ([3]; POPdU at 5, other dU Tyr-dU, dC Nap-dC, SB18T0.01, 37 C): 0.42 nM

GGGANANNANGNGNNNGANNGNNNGGANG [26874-29_118]
Kd ([3]; BTdU at 8, other dU Tyr-dU, dC Nap-dC, SB18T0.01, 37 C): 0.39 nM

GGGANANNANGNGNNNGANNGNNNGGANG [26874-29_119]
Kd ([3]; Y=Tyr-dU, p=Nap-dC, position 8 POP-dU, value curated as assigned, Kd/Kd_20 1656): 500 nM

GGGANANNANGNGNNNGANNGNNNGGANG [26874-29_120]
Kd ([3]; BTdU at 10, other dU Tyr-dU, dC Nap-dC, SB18T0.01, 37 C): 0.24 nM

GGGANANNANGNGNNNGANNGNNNGGANG [26874-29_121]
Kd ([3]; POPdU at 10, other dU Tyr-dU, dC Nap-dC, low plateau): 0.42 nM

GGGANANNANGNGNNNGANNGNNNGGANG [26874-29_122]
Kd ([3]; BTdU at 14, other dU Tyr-dU, dC Nap-dC, SB18T0.01, 37 C): 0.16 nM

GGGANANNANGNGNNNGANNGNNNGGANG [26874-29_123]
Kd ([3]; Y=Tyr-dU, p=Nap-dC, position 14 POP-dU, value curated as assigned, Kd/Kd_20 1656): 500 nM

GGGANANNANGNGNNNGANNGNNNGGANG [26874-29_124]
Kd ([3]; BTdU at 23, other dU Tyr-dU, dC Nap-dC, SB18T0.01, 37 C): 0.64 nM

GGGANANNANGNGNNNGANNGNNNGGANG [26874-29_125]
Kd ([3]; POPdU at 23, other dU Tyr-dU, dC Nap-dC, low plateau): 0.37 nM

GGGANANNANGNGNNNGANNGNNNGGANG [26874-29_126]
Kd ([3]; 2NEdU at 5, other dU Tyr-dU, dC Nap-dC, low plateau): 0.65 nM

GGGANANNANGNGNNNGANNGNNNGGANG [26874-29_128]
Kd ([3]; Y=Tyr-dU, p=Nap-dC, position 8 2NE-dU, value curated as assigned, Kd/Kd_20 1656): 500 nM

GGGANANNANGNGNNNGANNGNNNGGANG [26874-29_130]
Kd ([3]; 2NEdU at 10, other dU Tyr-dU, dC Nap-dC, SB18T0.01, 37 C): 0.28 nM

GGGANANNANGNGNNNGANNGNNNGGANG [26874-29_132]
Kd ([3]; 2NEdU at 14, other dU Tyr-dU, dC Nap-dC, SB18T0.01, 37 C): 0.27 nM

GGGANANNANGNGNNNGANNGNNNGGANG [26874-29_134]
Kd ([3]; Y=Tyr-dU, p=Nap-dC, position 23 2NE-dU, very low plateau, faint spots): 0.12 nM

GGGANANNANGNGNNNGANNGNNNGGANG [26874-29_136]
Kd ([3]; iBudU at 5, other dU Tyr-dU, dC Nap-dC, SB18T0.01, 37 C): 0.57 nM

GGGANANNANGNGNNNGANNGNNNGGANG [26874-29_138]
Kd ([3]; iBudU at 8, other dU Tyr-dU, dC Nap-dC, SB18T0.01, 37 C): 0.59 nM

GGGANANNANGNGNNNGANNGNNNGGANG [26874-29_140]
Kd ([3]; iBudU at 10, other dU Tyr-dU, dC Nap-dC, SB18T0.01, 37 C): 0.47 nM

GGGANANNANGNGNNNGANNGNNNGGANG [26874-29_142]
Kd ([3]; iBudU at 14, other dU Tyr-dU, dC Nap-dC, SB18T0.01, 37 C): 0.37 nM

GGGANANNANGNGNNNGANNGNNNGGANG [26874-29_144]
Kd ([3]; iBudU at 23, other dU Tyr-dU, dC Nap-dC, SB18T0.01, 37 C): 0.57 nM

GGGANANNANGNGNNNGANNGNNNGGANG [26874-29_146]
Kd ([3]; MBndU at 5, other dU Tyr-dU, dC Nap-dC, low plateau): 0.61 nM

GGGANANNANGNGNNNGANNGNNNGGANG [26874-29_147]
Kd ([3]; BPEdU at 5, other dU Tyr-dU, dC Nap-dC, assigned, low plateau): 0.44 nM

GGGANANNANGNGNNNGANNGNNNGGANG [26874-29_148]
Kd ([3]; MBndU at 8, other dU Tyr-dU, dC Nap-dC, low plateau): 0.46 nM

GGGANANNANGNGNNNGANNGNNNGGANG [26874-29_149]
Kd ([3]; BPEdU at 8, other dU Tyr-dU, dC Nap-dC, low plateau): 0.47 nM

GGGANANNANGNGNNNGANNGNNNGGANG [26874-29_150]
Kd ([3]; Y=Tyr-dU, p=Nap-dC, position 10 MBn-dU, Kd/Kd_20 38): 16 nM

GGGANANNANGNGNNNGANNGNNNGGANG [26874-29_151]
Kd ([3]; BPEdU at 10, other dU Tyr-dU, dC Nap-dC, SB18T0.01, 37 C): 0.78 nM

GGGANANNANGNGNNNGANNGNNNGGANG [26874-29_152]
Kd ([3]; MBndU at 14, other dU Tyr-dU, dC Nap-dC, SB18T0.01, 37 C): 0.33 nM

GGGANANNANGNGNNNGANNGNNNGGANG [26874-29_153]
Kd ([3]; Y=Tyr-dU, p=Nap-dC, position 14 BPE-dU, Kd/Kd_20 0.28): 0.11 nM

GGGANANNANGNGNNNGANNGNNNGGANG [26874-29_154]
Kd ([3]; MBndU at 23, other dU Tyr-dU, dC Nap-dC, SB18T0.01, 37 C): 0.43 nM

GGGANANNANGNGNNNGANNGNNNGGANG [26874-29_155]
Kd ([3]; BPEdU at 23, other dU Tyr-dU, dC Nap-dC, SB18T0.01, 37 C): 0.17 nM

GGGANANNANGNGNNNGANNGNNNGGANG [OH-26874-29_181]
Kd ([3]; 2Nap-dC at 7, other dC Nap-dC, dU Tyr-dU): 0.2 nM

GGGANANNANGNGNNNGANNGNNNGGANG [OH-26874-29_182]
Kd ([3]; 2Nap-dC at 12, other dC Nap-dC, dU Tyr-dU): 0.41 nM

GGGANANNANGNGNNNGANNGNNNGGANG [OH-26874-29_315]
Kd ([3]; Y=Tyr-dU, p=Nap-dC, position 12 PBn-dC, protein construct inferred): 0.16 nM

GGGANANNANGNGNNNGANNGNNNGGANG [OH-26874-29_328]
Kd ([3]; Y=Tyr-dU, p=Nap-dC, position 20 DPP-dC): 0.038 nM

GGGANANNANGNGNNNGANNGNNNGGANG [OH-26874-29_330]
Kd ([3]; Y=Tyr-dU, p=Nap-dC, position 24 DPP-dC, protein construct inferred): 0.11 nM

GGGANANNANGNGNNNGANNGNNNGGANG [OH-26874-29_331]
Kd ([3]; Y=Tyr-dU, p=Nap-dC, position 28 DPP-dC, protein construct inferred): 0.13 nM

GGGANANNANGNGNNNGANNGNNNGGANG [OH-26874-29_332]
Kd ([3]; Y=Tyr-dU, p=Nap-dC, position 7 DCPE-dC, protein construct inferred): 0.13 nM

GGGANANNANGNGNNNGANNGNNNGGANG [OH-26874-29_333]
Kd ([3]; Y=Tyr-dU, p=Nap-dC, position 12 DCPE-dC, protein construct inferred): 0.11 nM

GGGANANNANGNGNRNGANNGNNNGGANG [OH-26874-29_192]
Kd ([3]; Y=Tyr-dU, p=Nap-dC, position 15 PP-dC, protein construct inferred): 1000 nM

GGGATACTATGCGTCCGACCGCTCGGACG [26874-29_20 (SL1111_20)]
IC50 [4]: 1.1 nM

GNGNAANGNANNNNANNNGGNNNGAANGNG [26876-13_15]
Kd [3, 5]: 0.26 nM

NANNANGNGNNNGANNGNNNGGANG [26874-29_24]
Kd [3, 5]: 2.1 nM

NANNANGNGNNNGANNGNNNGGANGG [26874-29_22]
Kd [3, 5]: 1.4 nM
